In patent publication US20090311237A1, “Combination therapy using a soluble hyaluronidase and a bisphosphonate” (priority 2008, published 2009):

Experiments:
Sprague Dawley rats = assay: Injection site reactions (gross ISR incidence, lesion area) after intradermal injection of zoledronic acid with or without rHuPH20; type: in vivo, rat; conditions: for shift of half maximal effect (EC50) of ZA concentration vs lesion area curve: with vs without 10,000 U/mL rHuPH20
Experimental: A rodent model of local injection site injury caused by ZA injection was employed for the study. […] Injection into the dermis facilitates external visualization and assessment of the irritant.
Nine to ten week old female Sprague Dawley rats, having approximate body weight of 200-250 grams, were employed for the study. One day prior to injection, rats were shaved and hair on the back and flank area were removed by Nair® cream (exposure less than 1 min to depilation cream) followed by deep wash with warm tap water. On the day of dosing, all rats were injected intradermally in flank area (one or two injection spots per side), with 0.1 or 0.2 mL as indicated of zoledronic acid solution, with or without rHuPH20, at each corresponding concentration as shown in study design table. Injection site appearance was observed and quantified by blind assessment each day following the injection until the end of the study, at which time animals were sacrificed and the skin around the dosing area as well as a part of the skin that was not effected by the dosing were collected and fixed in 10% neutral buffered formalin (NBF) and further embedded in paraffin, 5 μm sections were cut for H&E stain and histopathology evaluation.
Lesion area was calculated by the following formula: W×L×¼π. Quantitative results were analyzed using one-way analysis of variance (ANOVA) method, followed by Dunnett's comparison method (Prizm 4 program). The probability values of less than 0.05 (two-tailed) were used as the critical level of significance for all tests. Groups with a sample size of two were excluded from analysis. If the sample size was 2 for the control group, there were no statistical analyses at that interval for any of the groups. Histopathologic findings were characterized by semi-quantitative analysis of necrosis and infiltration in the skin tissue. The incidences of each finding were compared with control groups by Chi-square test.
Prior to ZA intradermal injection, rats were randomized by body weight into 7 groups of 1 or 2 rats per group (Table 2). Rats were injected with either 0.1 mL or 0.2 mL of each corresponding concentration intradermally at two separate locations on each shaved flank side for a total of 4 injections for each animal. Injection sites were observed daily post-injection for four days. Pictures of injection site reaction (ISR) area were captured by digital camera and lesion area was scored for induration, erythema, or ulceration. Two perpendicular diameters (width & length) of injection site lesion were measured by microcaliper. The lesion area was defined as the area bounded by the outer edge of the erythemic zone. Upon completion of the study, the animals were euthanized and skin at the injection site and from an untreated area of the back of the rat were excised, mounted flat onto a piece of cardboard, and placed in 10% NBF.
A series of experiments were conducted in which various dosing concentrations of rHuPH20 were tested for the ability to reduce acute injection site lesions. Prior to ZA intra-dermal injection, rats were randomized by body weight into 11 groups of 2 rats per group. Rats were injected intradermally with 0.1 mL of each co-formulated solution as shown in Table 5 and observed daily with ISR development assessed as in Section B. Four days after injection, rats were sacrificed and the skin at the injection site as well as untreated skin from the back was excised, mounted flat onto a piece of cardboard, and placed in 10% NBF.
Prior to ZA intra-dermal injection, rats were randomized by body weight into 6 groups of 3 rats per group (Table 6). Rats were intradermally injected with 0.1 mL of each corresponding co-formulated solution at two separate locations, two on each shaved flank side, for a total of 4 injections for each animal. Injection sites were observed daily with ISR development assessed as in Section B for 6 days. […]

[1] = Hyaluronidase activity microturbidity (turbidometric) assay; type: biochemical; conditions: purified soluble rHuPH20 (Gen1, 5 L bioreactor); USP reference standard
Experimental: Hyaluronidase activity can be assessed using methods well known in the art. In one example, activity is measured using a microturbidity assay. This is based on the formation of an insoluble precipitate when hyaluronic acid binds with serum albumin. The activity is measured by incubating hyaluronidase with sodium hyaluronate (hyaluronic acid) for a set period of time (e.g. 10 minutes) and then precipitating the undigested sodium hyaluronate with the addition of acidified serum albumin. The turbidity of the resulting sample is measured at 640 nm after an additional development period. […] Following incubation with hyaluronidase, the residual biotinylated hyaluronic acid substrate is detected using an avidin-peroxidase reaction, and compared to that obtained following reaction with hyaluronidase standards of known activity.
Hyaluronidase activity of soluble rHuPH20 in samples such as cell cultures, purification fractions and purified solutions was determined using a turbidometric assay, which based on the formation of an insoluble precipitate when hyaluronic acid binds with serum albumin. The activity is measured by incubating soluble rHuPH20 with sodium hyaluronate (hyaluronic acid) for a set period of time (10 minutes) and then precipitating the undigested sodium hyaluronate with the addition of acidified serum albumin. […]

B1: rHuPH20: soluble form of human PH20 hyaluronidase recombinantly expressed in Chinese Hamster Ovary (CHO) cells (protein, listed as Homo sapiens)
chain: LNFRAPPVIPNVPFLWAWNAPSEFCLGKFDEPLDMSLFSFIGSPRINATGQGVTIFYVDRLGYYPYIDSITGVTVNGGIPQKISLQDHLDKAKKDITFYMPVDNLGMAVIDWEEWRPTWARNWKPKDVYKNRSIELVQQQNVQLSLTEATEKAKQEFEKAGKDFLVETIKLGKLLRPNHLWGYYLFPDCYNHHYKKPGYNGSCFNVEIKRNDDLSWLWNESTALYPSIYLNTQQSPVAATLYVRNRVREAIRVSKIPDAKSPLPVFAYTRIVFTDQVLKFLSQDELVYTFGETVALGASGIVIWGTLSIMRSMKSCLLLDNYMETILNPYIINVTLAAKMCSQVLCQEQGVCIRKNWNSSDYLHLNPDNFAIQLEKGGKFTVRGKPTLEDLEQFSEKFYCSCYSTLSCKEKADVKDTDAVDVCIADGVCIDAFLKPPMETEEPQIFY
modifications: soluble rHuPH20 1-447
notes: soluble form of human PH20 hyaluronidase recombinantly expressed in Chinese Hamster Ovary (CHO) cells
Sprague Dawley rats; rat ID model, preliminary experiments
  rHuPH20 concentration with maximal effect on ISR formation: 10,000 U/mL
Sprague Dawley rats; rat ID, 10,000 U/mL rHuPH20 co-formulated with ZA up to 0.05 mg/mL
  suppression of injection site lesion formation: complete suppression
Sprague Dawley rats; rat ID, all ZA concentrations tested (0.05 to 0.4 mg/ml)
  threshold of rHuPH20 in lesion area reduction: 100 U/mL
Sprague Dawley rats; rat ID, regardless of ZA concentration (0.05 to 0.4 mg/ml)
  rHuPH20 concentration at which maximal activity was reached: 1000 U/mL
Sprague Dawley rats; rat ID, day 2
  shift of half maximal effect (EC50) of ZA concentration vs lesion area curve: approximately 2.4 fold
Sprague Dawley rats; rat ID, day 3
  shift of half maximal effect (EC50) of ZA concentration vs lesion area curve: ~3.3 fold
Sprague Dawley rats; rat ID, day 4
  shift of half maximal effect (EC50) of ZA concentration vs lesion area curve: ~5.7 fold
[1]
  specific activity: > 65,000 USP Units/mg protein
